From IntAct's records for PubMed 21151104

B1: T-box transcription factor TBX21 (Mus musculus), Q9JKD8 (parent)
chain: MGIVEPGCGDMLTGTEPMPSDEGRGPGADQQHRFFYPEPGAQDPTDRRAGSSLGTPYSGGALVPAAPGRFLGSFAYPPRAQVAGFPGPGEFFPPPAGAEGYPPVDGYPAPDPRAGLYPGPREDYALPAGLEVSGKLRVALSNHLLWSKFNQHQTEMIITKQGRRMFPFLSFTVAGLEPTSHYRMFVDVVLVDQHHWRYQSGKWVQCGKAEGSMPGNRLYVHPDSPNTGAHWMRQEVSFGKLKLTNNKGASNNVTQMIVLQSLHKYQPRLHIVEVNDGEPEAACSASNTHVFTFQETQFIAVTAYQNAEITQLKIDNNPFAKGFRENFESMYASVDTSVPSPPGPNCQLLGGDPFSPLLSNQYPVPSRFYPDLPGQPKDMISQPYWLGTPREHSYEAEFRAVSMKPTLLPSAPGPTVPYYRGQDVLAPGAGWPVAPQYPPKMSPAGWFRPMRTLPMDPGLGSSEEQGSSPSLWPEVTSLQPEPSDSGLGEGDTKRRRISPYPSSGDSSSPAGAPSPFDKETEGQFYNYFPN

Variants of: B1
Conditions: with runx1_mouse Runx1, Q03347
runx1_mouse Runx1, Q03347, sequence (Q03347 whole entry): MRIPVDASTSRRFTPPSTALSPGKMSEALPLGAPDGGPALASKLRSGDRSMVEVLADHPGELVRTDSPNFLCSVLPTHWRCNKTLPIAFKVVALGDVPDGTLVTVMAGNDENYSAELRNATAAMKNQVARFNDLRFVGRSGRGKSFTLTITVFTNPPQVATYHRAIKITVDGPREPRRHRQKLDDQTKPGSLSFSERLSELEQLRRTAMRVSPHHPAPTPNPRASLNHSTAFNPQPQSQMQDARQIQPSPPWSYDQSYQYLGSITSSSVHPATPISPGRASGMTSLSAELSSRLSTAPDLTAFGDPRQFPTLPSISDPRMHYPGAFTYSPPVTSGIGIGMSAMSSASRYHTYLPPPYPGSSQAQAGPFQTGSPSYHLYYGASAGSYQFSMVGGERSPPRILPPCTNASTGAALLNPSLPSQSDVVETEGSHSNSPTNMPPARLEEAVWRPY

Variant | effect of a mutation on the interaction
MGIVEPGCGDMLTGTEPMPSDEGRGPGADQQHRFFYPEPGAQDPTDRRAGSSLGTPYSGGALVPAAPGRFLGSFAYPPRAQVAGFPGPGEFFPPPAGAEGYPPVDGYPAPDPRAGLYPGPREDYALPAGLEVSGKLRVALSNHLLWSKFNQHQTEMIITKQGRRMFPFLSFTVAGLEPTSHYRMFVDVVLVDQHHWRYQSGKWVQCGKAEGSMPGNRLYVHPDSPNTGAHWMRQEVSFGKLKLTNNKGASNNVTQMIVLQSLHKYQPRLHIVEVNDGEPEAACSASNTHVFTFQETQFIAVTAFQNAEITQLKIDNNPFAKGFRENFESMYASVDTSVPSPPGPNCQLLGGDPFSPLLSNQYPVPSRFYPDLPGQPKDMISQPYWLGTPREHSYEAEFRAVSMKPTLLPSAPGPTVPYYRGQDVLAPGAGWPVAPQYPPKMSPAGWFRPMRTLPMDPGLGSSEEQGSSPSLWPEVTSLQPEPSDSGLGEGDTKRRRISPYPSSGDSSSPAGAPSPFDKETEGQFYNYFPN [Y304F] | disrupting interaction
